Assay results from patent publication USRE49847 (dated 2024).

T1: soluble CD22-Fc (R&D Systems) (UniProt P20273 20-687)
T1 construct: Bought reagent used to stain CD22 CARs; not shown: Fc part; detected with anti-human IgG Fc-gamma secondary
T1 sequence (looked up): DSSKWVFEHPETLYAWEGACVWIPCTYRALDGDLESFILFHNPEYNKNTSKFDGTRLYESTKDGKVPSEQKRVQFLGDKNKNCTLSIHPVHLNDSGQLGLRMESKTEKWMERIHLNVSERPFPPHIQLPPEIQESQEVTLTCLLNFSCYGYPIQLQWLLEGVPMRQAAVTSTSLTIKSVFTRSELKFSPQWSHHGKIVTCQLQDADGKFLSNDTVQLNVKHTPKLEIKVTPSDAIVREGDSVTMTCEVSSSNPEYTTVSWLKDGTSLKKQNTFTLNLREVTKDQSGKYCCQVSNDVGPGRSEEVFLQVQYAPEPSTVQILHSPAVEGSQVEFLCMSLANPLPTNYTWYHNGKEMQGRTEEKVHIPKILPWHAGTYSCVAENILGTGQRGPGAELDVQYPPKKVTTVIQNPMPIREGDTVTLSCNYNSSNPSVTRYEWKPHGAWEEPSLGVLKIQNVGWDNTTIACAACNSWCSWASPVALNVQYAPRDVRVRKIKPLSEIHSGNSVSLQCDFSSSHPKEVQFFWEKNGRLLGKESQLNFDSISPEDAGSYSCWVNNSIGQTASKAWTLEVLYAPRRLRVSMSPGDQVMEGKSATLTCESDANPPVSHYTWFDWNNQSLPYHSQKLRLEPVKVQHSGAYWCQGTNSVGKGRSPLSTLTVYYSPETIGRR


Molecular target: T1, soluble CD22-Fc (R&D Systems)
Experiment: FACS surface staining of transduced JNL cells with CD22-Fc

binding result | Binder
binds | tandem CD19/CD22 CAR construct 174 (other, Distal anti-CD19 scFv, GGGGS, proximal anti-CD22 scFv H/L with short linker; leader 1-21 left out; also called CG#c174; c174) EIVMTQSPATLSLSPGERATLSCRASQDISKYLNWYQQKPGQAPRLLIYHTSRLHSGIPARFSGSGSGTDYTLTISSLQPEDFAVYFCQQGNTLPYTFGQGTKLEIKGGGGSGGGGSGGGGSQVQLQESGPGLVKPSETLSLTCTVSGVSLPDYGVSWIRQPPGKGLEWIGVIWGSETTYYQSSLKSRVTISKDNSKNQVSLKLSSVTAADTAVYYCAKHYYYGGSYAMDYWGQGTLVTVSSGGGGSEVQLQQSGPGLVKPSQTLSLTCAISGDSMLSNSDTWNWIRQSPSRGLEWLGRTYHRSTWYDDYASSVRGRVSINVDTSKNQYSLQLNAVTPEDTGVYYCARVRLQDGNSWSDAFDVWGQGTMVTVSSGGGGSQSALTQPASASGSPGQSVTISCTGTSSDVGGYNYVSWYQQHPGKAPKLMIYDVSNRPSGVSNRFSGSKSGNTASLTISGLQAEDEADYYCSSYTSSSTLYVFGTGTQLTVLTTTPAPRPPTPAPTIASQPLSLRPEACRPAAGGAVHTRGLDFACDIYIWAPLAGTCGVLLLSLVITLYCKRGRKKLLYIFKQPFMRPVQTTQEEDGCSCRFPEEEEGGCELRVKFSRSADAPAYQQGQNQLYNELNLGRREEYDVLDKRRGRDPEMGGKPRRKNPQEGLYNELQKDKMAEAYSEIGMKGERRRGKGHDGLYQGLSTATKDTYDALHMQALPPR
binds | tandem CD22/CD19 CAR construct 181 (other, Distal anti-CD22 scFv H/L, LAEAAAK, proximal anti-CD19 scFv; leader 1-21 left out; also called CG#c181; c181) EVQLQQSGPGLVKPSQTLSLTCAISGDSMLSNSDTWNWIRQSPSRGLEWLGRTYHRSTWYDDYASSVRGRVSINVDTSKNQYSLQLNAVTPEDTGVYYCARVRLQDGNSWSDAFDVWGQGTMVTVSSGGGGSGGGGSGGGGSQSALTQPASASGSPGQSVTISCTGTSSDVGGYNYVSWYQQHPGKAPKLMIYDVSNRPSGVSNRFSGSKSGNTASLTISGLQAEDEADYYCSSYTSSSTLYVFGTGTQLTVLLAEAAAKEIVMTQSPATLSLSPGERATLSCRASQDISKYLNWYQQKPGQAPRLLIYHTSRLHSGIPARFSGSGSGTDYTLTISSLQPEDFAVYFCQQGNTLPYTFGQGTKLEIKGGGGSGGGGSGGGGSQVQLQESGPGLVKPSETLSLTCTVSGVSLPDYGVSWIRQPPGKGLEWIGVIWGSETTYYQSSLKSRVTISKDNSKNQVSLKLSSVTAADTAVYYCAKHYYYGGSYAMDYWGQGTLVTVSSTTTPAPRPPTPAPTIASQPLSLRPEACRPAAGGAVHTRGLDFACDIYIWAPLAGTCGVLLLSLVITLYCKRGRKKLLYIFKQPFMRPVQTTQEEDGCSCRFPEEEEGGCELRVKFSRSADAPAYQQGQNQLYNELNLGRREEYDVLDKRRGRDPEMGGKPRRKNPQEGLYNELQKDKMAEAYSEIGMKGERRRGKGHDGLYQGLSTATKDTYDALHMQALPPR
binds | tandem CD22/CD19 CAR construct 182 (other, Distal anti-CD22 scFv H/L, GGGGS, proximal anti-CD19 scFv; leader 1-21 left out; also called CG#c182; c182) EVQLQQSGPGLVKPSQTLSLTCAISGDSMLSNSDTWNWIRQSPSRGLEWLGRTYHRSTWYDDYASSVRGRVSINVDTSKNQYSLQLNAVTPEDTGVYYCARVRLQDGNSWSDAFDVWGQGTMVTVSSGGGGSGGGGSGGGGSQSALTQPASASGSPGQSVTISCTGTSSDVGGYNYVSWYQQHPGKAPKLMIYDVSNRPSGVSNRFSGSKSGNTASLTISGLQAEDEADYYCSSYTSSSTLYVFGTGTQLTVLGGGGSEIVMTQSPATLSLSPGERATLSCRASQDISKYLNWYQQKPGQAPRLLIYHTSRLHSGIPARFSGSGSGTDYTLTISSLQPEDFAVYFCQQGNTLPYTFGQGTKLEIKGGGGSGGGGSGGGGSQVQLQESGPGLVKPSETLSLTCTVSGVSLPDYGVSWIRQPPGKGLEWIGVIWGSETTYYQSSLKSRVTISKDNSKNQVSLKLSSVTAADTAVYYCAKHYYYGGSYAMDYWGQGTLVTVSSTTTPAPRPPTPAPTIASQPLSLRPEACRPAAGGAVHTRGLDFACDIYIWAPLAGTCGVLLLSLVITLYCKRGRKKLLYIFKQPFMRPVQTTQEEDGCSCRFPEEEEGGCELRVKFSRSADAPAYQQGQNQLYNELNLGRREEYDVLDKRRGRDPEMGGKPRRKNPQEGLYNELQKDKMAEAYSEIGMKGERRRGKGHDGLYQGLSTATKDTYDALHMQALPPR
